Laboratory results from publication PMC2561144 (Journal of Experimental Botany, 2008).

What was measured:
[1] = molecular target: T1, MYA2 tail 1, aa1049-aa1505, fused with GST (Arabidopsis thaliana, UniProt Q9LKB9 1049-1505); test: pull-down
T1 sequence: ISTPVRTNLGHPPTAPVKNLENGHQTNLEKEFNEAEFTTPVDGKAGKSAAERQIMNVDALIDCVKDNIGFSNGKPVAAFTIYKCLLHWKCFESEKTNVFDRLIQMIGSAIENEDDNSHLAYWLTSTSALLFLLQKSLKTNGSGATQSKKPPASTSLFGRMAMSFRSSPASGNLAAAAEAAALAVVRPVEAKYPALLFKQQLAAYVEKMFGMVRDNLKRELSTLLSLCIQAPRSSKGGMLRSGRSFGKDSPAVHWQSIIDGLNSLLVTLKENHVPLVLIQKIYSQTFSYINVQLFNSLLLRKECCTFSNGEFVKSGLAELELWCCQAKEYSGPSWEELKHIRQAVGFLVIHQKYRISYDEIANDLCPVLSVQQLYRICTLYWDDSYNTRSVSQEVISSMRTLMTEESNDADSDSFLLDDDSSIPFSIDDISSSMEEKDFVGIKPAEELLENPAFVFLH

[2] = molecular target: T2, MYA2 tail 2, aa1049-aa1450, fused with GST (Arabidopsis thaliana, UniProt Q9LKB9 1049-1450); test: pull-down
T2 sequence: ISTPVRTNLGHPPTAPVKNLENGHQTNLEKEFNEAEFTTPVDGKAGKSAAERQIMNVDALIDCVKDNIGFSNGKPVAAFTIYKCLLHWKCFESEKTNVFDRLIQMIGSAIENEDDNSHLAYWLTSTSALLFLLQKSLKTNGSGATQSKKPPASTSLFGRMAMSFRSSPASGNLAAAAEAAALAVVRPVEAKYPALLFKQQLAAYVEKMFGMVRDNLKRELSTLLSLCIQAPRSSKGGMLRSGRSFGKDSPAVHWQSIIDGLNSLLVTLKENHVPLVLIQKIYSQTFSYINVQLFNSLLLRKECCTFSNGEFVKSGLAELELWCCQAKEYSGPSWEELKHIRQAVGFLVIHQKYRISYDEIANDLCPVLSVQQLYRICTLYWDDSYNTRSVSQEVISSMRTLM

B1: His6-AtRabD1 (natural protein)
chain: not shown
For B1, the “fold amount bound with GTP over that without GTP or on control beads” value [1] was 2.6 fold and the “fold amount bound with GTP over that without GTP or on control beads” value [2] was 1.6 fold.

B2: His6-AtRabC2a (natural protein)
chain: MGSSSGQSGYDLSFKILLIGDSGVGKSSLLVSFISSSVEDLAPTIGVDFKIKQLTVGGKRLKLTIWDTAGQERFRTLTSSYYRGAQGIILVYDVTRRETFTNLVDVWGKEIELYSTNQECVRMLVGNKVDRESERGVSREEGIALAKELNCMFLECSARTRQNVEQCFEELALKIMEVPSLLEEGSSAVKRNILKQKPEHQTNTQSGCCS
B2 was tested, and the “fold amount bound with GTP over that without GTP or on control beads” value [1] was 1.7 fold.
